Laboratory results published in paper PMC7979930.

Key:
[1] = target: CBF3core, dephosphorylated (Cep3 dimer, Ctf13, Skp1) (budding yeast) (UniProt P40969+P35203+P52286); experiment: EMSA; details: 1 mM DTT, 60 min on ice, 530 nM nucleosome, 106-1166 nM CBF3/CBF3core, 4% PAGE 0.2x TBE 4 C, EtBr stain, Hill fit
[2] = target: CEN3 CENP-A^Cse4 nucleosome (budding yeast | yeast) (UniProt P36012); experiment: native gel or EMSA; CBF3/CBF3core with CEN3 nucleosomes, room temperature 60 min; native agarose gels in 0.2 x TBE, SYBR Green I stain, bands quantified
[3] = target: CEN3 CENP-A^Cse4 nucleosome with H2B_5mut (budding yeast | yeast) (UniProt P36012); experiment: as above
[4] = target: CEN3 CENP-A^Cse4_∆L1 nucleosome (budding yeast | yeast) (UniProt P36012); experiment: as above
[5] = target: CEN3 CENP-A^Cse4_∆L1 nucleosome with H2B_5mut (budding yeast | yeast) (UniProt P36012); experiment: as above
[6] = target: CBF3, dephosphorylated (CBF3core + Ndc10 NTD) (budding yeast) (UniProt P40969+P35203+P52286+P32504); experiment: EMSA; details: Ndc10 dissociates, main text says CEN3 nucleosome, Methods CEN3-601, EMSA: 10 mM Tris pH 7.4, 75 mM NaCl, 1 mM DTT, 60 min on ice, 530 nM nucleosome, 106-1166 nM CBF3/CBF3core, 4% PAGE 0.2x TBE 4 C, EtBr stain, Hill fit
[7] = Fig. 3c legend says CEN3, Supp. Fig. 4f says CEN3-601, EMSA: 10 mM Tris pH 7.4, 75 mM NaCl

## ATCGAGAATCCCGGTGCCGAGGCCGCTCAATTGGTCGTAGACAGCTCTAGCACCGCTTAAACGCACGTACGCGCTGTCCCCCGCGTTTTAATATTAGTGTATTTGATTTCCGAAAGTTAAAAAAGAAATAGTAAGAAATCATCCGAT (double strand) [CEN3-601 Cse4/H2B_5mut nucleosome]
[1]; [7]
  Kd: 350 nM

## ATCGAGAATCCCGGTGCCGAGGCCGCTCAATTGGTCGTAGACAGCTCTAGCACCGCTTAAACGCACGTACGCGCTGTCCCCCGCGTTTTAATATTAGTGTATTTGATTTCCGAAAGTTAAAAAAGAAATAGTAAGAAATCATCCGAT (double strand) [CEN3-601 Cse4_deltaL1/H2B_5mut nucleosome]
[1]; [7]
  Kd: 680 nM

## ATCGAGAATCCCGGTGCCGAGGCCGCTCAATTGGTCGTAGACAGCTCTAGCACCGCTTAAACGCACGTACGCGCTGTCCCCCGCGTTTTAATATTAGTGTATTTGATTTCCGAAAGTTAAAAAAGAAATAGTAAGAAATCATCCGAT (double strand) [CEN3-601 Cse4_deltaL1 nucleosome]
[1]; [7]
  Kd: 360 nM

## dephosphorylated CBF3core (from UniProt P40969 1-608; P52286 1-194; P35203 1-478) (complex)
[2]
  Kd: 320 nM
[3]
  Kd: 350 nM
[4]
  Kd: 360 nM
[5]
  Kd: 680 nM

## ATCGAGAATCCCGGTGCCGAGGCCGCTCAATTGGTCGTAGACAGCTCTAGCACCGCTTAAACGCACGTACGCGCTGTCCCCCGCGTTTTAATATTAGTGTATTTGATTTCCGAAAGTTAAAAAAGAAATAGTAAGAAATCATCCGAT (double strand) [CEN3-601 Cse4 nucleosome]
[6]
  Kd: 550 nM
[1]; NucCse4/H2B, Fig. 3c legend says CEN3, Supp. Fig. 4f and Methods say CEN3-601, EMSA: 10 mM Tris pH 7.4, 75 mM NaCl
  Kd: 320 nM
